Test results: US20230220098A1, “THERAPEUTIC DRUG FOR POLYCYTHEMIA” (PERSEUS PROTEOMICS INC., priority 2019, published 2023)

Experiments:
[1] = system: PV patient-derived hematopoietic stem cells; experiment: EPO-independent erythroblast (BFU-E/CFU-E) colony assay; format: cell-based, human
Description: PV patient-derived hematopoietic stem cells are characterized in that BFU-E or CFU-E is formed in the cells even in the absence of erythropoietin (EPO). The activity of TfR436 to inhibit the formation of these colonies was examined.
(§1) The peripheral blood of a PV patient, which had been obtained by phlebotomy, was dispensed into three 50-mL centrifuge tubes in an amount of 20 mL each, and an equal amount of PBS (Gibco) was then added to each tube, followed by mixing. Thereafter, 15 mL of LymphoSep, Lymphocyte Separation Media (MP Biomedicals™) was dispensed into […] novel 50-mL centrifuge tubes, and the peripheral blood diluted with PBS was then slowly added thereto in an amount of 30 mL each, and the obtained mixture was then centrifuged at 1,500 rpm at room temperature for 30 minutes. After completion of the centrifugation, the plasma as a supernatant was removed, and a PBMC layer was collected by transfer pipetting. The collected PBMC layer was suspended in 20 mL of PBS+2% FBS (Gibco). The thus obtained suspension was further centrifuged at 1350 rpm at room temperature for 10 minutes, a supernatant was then removed, and the residue was then suspended in 1 to 5 mL of IMDM (Nacalai Tesque)+2% FBS. Using 0.2% Trypan Blue, the number of cells was counted, and the cells were adjusted to 2×10^6 cells/mL by addition of IMDM+2% FBS.
(§2) TfR436 and a human IgG1 antibody used as a negative control were each diluted with IMDM+2% FBS to an antibody concentration of […]. MethoCult™ H4534 Classic WithoutEPO (STEMCELL TECHNOLOGIES) was dispensed into seven 14-mL round bottle tubes in an amount of 3 mL each, and 300 jut of the above-prepared PBMC was then added thereto. Thereafter, an antibody-diluted solution or 3.3 μL of IMDM+2% FBS (control) was further added thereto, followed by full mixing. Thereafter, the reaction mixture was seeded on two 35-mm culture dishes in an amount of 1 mL each. This mixture was cultured at 37° C. in a 5% CO2 incubator for 14 days. After completion of the culture, the 35-mm culture dishes were observed under a microscope, and the number of the formed BFU-E or CFU-E colonies was then counted. The colony formation percentage with respect to the number of colonies obtained by a culture without addition of antibodies was then calculated.

mouse TfR = mouse TfR (Mus musculus, UniProt Q62351); experiment: Cross-reactivity of TfR436 antibody with mouse TfR; format: binding
[2] = system: HYDREA (registered trademark)-administered patient-derived hematopoietic stem cells; experiment: Erythroblast colony assay, HYDREA-administered patients; format: cell-based, human
Description: as §1, §2
Hematopoietic stem cells derived from patients administered with HYDREA (registered trademark) were used as PV patient-derived hematopoietic stem cells, and the activity of TfR436 to inhibit erythroblast colony formation was examined by the same method as that of Example 3. Besides, HYDREA (registered trademark) was administered as hydroxycarbamide (also referred to as “hydroxyurea”) to the patients via oral administration at a daily dose of 500 mg to 2000 mg once or divided over twice or three times. As a result, erythroblast colony formation was inhibited by addition of 100 ng/mL or more TfR436 (Table 2).

mouse TfR, sequence (Q62351 whole entry): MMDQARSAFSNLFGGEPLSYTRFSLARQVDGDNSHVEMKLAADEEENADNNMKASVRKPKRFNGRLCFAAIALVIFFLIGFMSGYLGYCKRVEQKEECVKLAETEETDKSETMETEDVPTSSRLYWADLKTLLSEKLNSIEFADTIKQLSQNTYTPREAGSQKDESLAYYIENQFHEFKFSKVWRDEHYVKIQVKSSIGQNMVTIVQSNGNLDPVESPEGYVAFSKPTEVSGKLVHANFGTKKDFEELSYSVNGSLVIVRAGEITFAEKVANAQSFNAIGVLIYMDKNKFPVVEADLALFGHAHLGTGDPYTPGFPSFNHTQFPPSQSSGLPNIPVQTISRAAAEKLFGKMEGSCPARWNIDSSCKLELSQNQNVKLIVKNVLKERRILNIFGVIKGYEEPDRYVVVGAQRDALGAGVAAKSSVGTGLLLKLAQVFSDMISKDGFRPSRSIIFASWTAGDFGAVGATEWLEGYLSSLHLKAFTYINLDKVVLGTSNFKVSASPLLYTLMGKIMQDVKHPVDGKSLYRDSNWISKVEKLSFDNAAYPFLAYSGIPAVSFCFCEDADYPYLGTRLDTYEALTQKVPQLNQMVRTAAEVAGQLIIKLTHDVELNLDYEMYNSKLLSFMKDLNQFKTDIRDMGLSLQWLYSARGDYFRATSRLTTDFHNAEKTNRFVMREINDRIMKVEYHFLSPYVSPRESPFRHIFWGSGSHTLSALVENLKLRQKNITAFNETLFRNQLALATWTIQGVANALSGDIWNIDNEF

B1: TfR436: anti-human transferrin receptor antibody, VH SEQ ID NO: 7 and VL SEQ ID NO: 8, described in WO2014/073641; called PPMX-T003 in Tables 3 and 4 (antibody, listed as Homo sapiens, V domains shown)
VH: DVQLVQSGGGVVQPGRSLRLSCAASGFPFKSYGMHWVRQAPGKGLEWVAVISYDGSNKYYADSVKGRFTISRDNSKNTLYLQMNSLRGEDTAVYYCARDSNFWSGYYSPVDVWGQGTTVTVSS
VL: NFMLTQPHSVSESPGKTVTISCTRSSGSIASNSVQWYQQRPGSAPITVIYEDTQRPSGVPDRFSGSIDSSSNSASLTISGLQTEDEADYYCQSYDSAYHWVFGGGTKLAVL
formation of erythroblast colonies ([1]; 100 ng/mL or more, 14 days, without EPO): almost completely inhibited | colony formation percentage with respect to culture without addition of antibodies ([1]; pt No. 1, 10 ng/mL): 87.1% | colony formation percentage with respect to culture without addition of antibodies ([1]; pt No. 1, 100 ng/mL): 0.0% | colony formation percentage with respect to culture without addition of antibodies ([1]; pt No. 1, 1000 ng/mL): 0.0% | colony formation percentage with respect to culture without addition of antibodies ([1]; pt No. 2, 10 ng/mL): 149.0% | colony formation percentage with respect to culture without addition of antibodies ([1]; pt No. 2, 100 ng/mL): 2.1% | colony formation percentage with respect to culture without addition of antibodies ([1]; pt No. 2, 1000 ng/mL): 0.0% | colony formation percentage with respect to culture without addition of antibodies ([1]; pt No. 3, 10 ng/mL): 91.7% | colony formation percentage with respect to culture without addition of antibodies ([1]; pt No. 3, 100 ng/mL): 0.0% | colony formation percentage with respect to culture without addition of antibodies ([1]; pt No. 3, 1000 ng/mL): 0.0% | colony formation percentage with respect to culture without addition of antibodies ([1]; pt No. 7, 10 ng/mL): 63.6% | colony formation percentage with respect to culture without addition of antibodies ([1]; pt No. 7, 100 ng/mL): 0.0% | colony formation percentage with respect to culture without addition of antibodies ([1]; pt No. 7, 1000 ng/mL): 0.0% | colony formation percentage with respect to culture without addition of antibodies ([1]; pt No. 9, 10 ng/mL): 63.3% | colony formation percentage with respect to culture without addition of antibodies ([1]; pt No. 9, 100 ng/mL): 0.0% | colony formation percentage with respect to culture without addition of antibodies ([1]; pt No. 9, 1000 ng/mL): 1.0% | colony formation percentage with respect to culture without addition of antibodies ([1]; pt No. 11, 10 ng/mL): 80.8% | colony formation percentage with respect to culture without addition of antibodies ([1]; pt No. 11, 100 ng/mL): 0.0% | colony formation percentage with respect to culture without addition of antibodies ([1]; pt No. 11, 1000 ng/mL): 0.0% | colony formation percentage with respect to culture without addition of antibodies ([1]; pt No. 13, 10 ng/mL): 35.2% | colony formation percentage with respect to culture without addition of antibodies ([1]; pt No. 13, 100 ng/mL): 23.9% | colony formation percentage with respect to culture without addition of antibodies ([1]; pt No. 13, 1000 ng/mL): 19.7% | colony formation percentage with respect to culture without addition of antibodies ([1]; pt No. 14, 10 ng/mL): 68.9% | colony formation percentage with respect to culture without addition of antibodies ([1]; pt No. 14, 100 ng/mL): 0.0% | colony formation percentage with respect to culture without addition of antibodies ([1]; pt No. 14, 1000 ng/mL): 0.0% | colony formation percentage with respect to culture without addition of antibodies ([1]; pt No. 15, 10 ng/mL): 6.7% | colony formation percentage with respect to culture without addition of antibodies ([1]; pt No. 15, 100 ng/mL): 0.0% | colony formation percentage with respect to culture without addition of antibodies ([1]; pt No. 15, 1000 ng/mL): 3.3% | colony formation percentage with respect to culture without addition of antibodies ([1]; pt No. 18, 10 ng/mL): 47.6% | colony formation percentage with respect to culture without addition of antibodies ([1]; pt No. 18, 100 ng/mL): 0.0% | colony formation percentage with respect to culture without addition of antibodies ([1]; pt No. 18, 1000 ng/mL): 0.0% | colony formation percentage with respect to culture without addition of antibodies ([1]; pt No. 20, 10 ng/mL): 143.8% | colony formation percentage with respect to culture without addition of antibodies ([1]; pt No. 20, 100 ng/mL): 0.0% | colony formation percentage with respect to culture without addition of antibodies ([1]; pt No. 20, 1000 ng/mL): 0.0% | cross-reactivity with mouse TfR (mouse TfR): did not cross-react | erythroblast colony formation ([2]; 100 ng/mL or more): inhibited | colony formation percentage with respect to culture without addition of antibodies ([2]; HYDREA-administered pt No. 1, 10 ng/mL): 109.1% | colony formation percentage with respect to culture without addition of antibodies ([2]; HYDREA-administered pt No. 1, 100 ng/mL): 0.0% | colony formation percentage with respect to culture without addition of antibodies ([2]; HYDREA-administered pt No. 1, 1000 ng/mL): 0.0% | colony formation percentage with respect to culture without addition of antibodies ([2]; HYDREA-administered pt No. 23, 10 ng/mL): 100.0% | colony formation percentage with respect to culture without addition of antibodies ([2]; HYDREA-administered pt No. 23, 100 ng/mL): 0.0% | colony formation percentage with respect to culture without addition of antibodies ([2]; HYDREA-administered pt No. 23, 1000 ng/mL): 0.0% | colony formation percentage with respect to culture without addition of antibodies ([2]; HYDREA-administered pt No. 24, 10 ng/mL): 68.6% | colony formation percentage with respect to culture without addition of antibodies ([2]; HYDREA-administered pt No. 24, 100 ng/mL): 0.0% | colony formation percentage with respect to culture without addition of antibodies ([2]; HYDREA-administered pt No. 24, 1000 ng/mL): 0.0% | colony formation percentage with respect to culture without addition of antibodies ([2]; HYDREA-administered pt No. 26, 10 ng/mL): 148.9% | colony formation percentage with respect to culture without addition of antibodies ([2]; HYDREA-administered pt No. 26, 100 ng/mL): 10.6% | colony formation percentage with respect to culture without addition of antibodies ([2]; HYDREA-administered pt No. 26, 1000 ng/mL): 0.0% | colony formation percentage with respect to culture without addition of antibodies ([2]; HYDREA-administered pt No. 27, 10 ng/mL): 152.4% | colony formation percentage with respect to culture without addition of antibodies ([2]; HYDREA-administered pt No. 27, 100 ng/mL): 0.0% | colony formation percentage with respect to culture without addition of antibodies ([2]; HYDREA-administered pt No. 27, 1000 ng/mL): 0.0% | colony formation percentage with respect to culture without addition of antibodies ([2]; HYDREA-administered pt No. 28, 10 ng/mL): 112.5% | colony formation percentage with respect to culture without addition of antibodies ([2]; HYDREA-administered pt No. 28, 100 ng/mL): 0.0% | colony formation percentage with respect to culture without addition of antibodies ([2]; HYDREA-administered pt No. 28, 1000 ng/mL): 0.0%
